The data set concerns the molecule itself. Kind of data set: cryo-EM micrographs of single particles; purified Ctpom152^FL, much of the detergent removed before rapid freezing; longer strings in up to an estimated 10% of over 2000 images.

B1: full-length pom152 of Chaetomium thermophilum (Ctpom152^FL) (natural protein, UniProt G0SB44 1-1270, looked up)
chain: MSDAPAVGAFPQTPVAARRGPARPSDSTTSTTIKRTSPLPLAPQAGRQATNISPVIPLHILDAPTQRFYAFAFYLALTAWKLYDWTQVLEEDTESFLLFLKWIAIDCVFLFGLPELRIPWLELSQPFVMVAFAIHAMFDWILMFNIGFPWQSWVIGLLKVFYDREIAISEHNVKLSSILQNSSLIMGRQIINILPEGSAILNPELQPFCLGGDRKTANIPIFFNSTIPVEVELIRTDFETGQQESIKLSKSQLRDIERRAKRESQDGDTVQSIVQFDFPVKKTGAYRLGRVLDEYKLEVQRRNPLTFVVSCPKAWVGPALSAHRCVGDLSDLSMMVEGTPPLKIKYSRMINGKDHSFHFQSLQPEGFVSPLSGLRSNNWGYDEDDISWARAQKVPVGLNESMHSSGDWQYSIDEVQDGFGNIIKYDSLADDPDGKPKPKHLTQSFVVKKRPVIRLEGCDLRHPLKVAKGKSKNLPVSYGLSGGSREDSTYQIAWQFSPIDTLTESGDHGDVVTIGTYTAKNNRDRPTISAPGLYTLKSVSASQCEGEIQEPSSCLLLNPLEPRLSLRHEEIPDTCAGNSIGLRVDLDLIGTPPFIVRYDVISNGERRSERVSIPGLRYQLDLVPRIAGHHKYIFTHVGDSIYDGQKLSGPEYVLEQDVKPAAAALIQHSTGKMSSCLGDQVTVDILLLGDPPFTLEWELIHDGKRKQFKVPNIQENSYQIKTAPLTTGGEYTLGLTSVQDKRGCRNFLQEELKISVRRQSPRAAFGQVDGKRKILAVEGSSVKLPLRLTGEGPWKVYYANLHDGSPDKPKVQEKIIKSDNGFLEVRGRGAFAITDVWDSQCHGVVDPKASRFDVDWFPRPELSVALTHGVSKTETGFQLQDVCEGDVSGFEVALKGTPPFTVEYEVRHHPLQGSSSLSKKKIEGVVGKEAIQADTSKAGTYTYKFTALEDDLYSSNRGFQPIIVKQNVNRKPTASFVKPGQTFKYCKSEQDNEDGIPITLTGVPPFFLEVEIKHQSAAVPEIYRTPAIDSHSYELKIPRHHLRLGTQHIRIRDIRDGSGCHSTSGILSGPSVQVQLFEAPTIYPLETRTDYCVGERISYTLSGQAPFEVWYTFNGVELKAKSPNTNFRRIAESPGEFTITSVSDKASECRAPVSITKTIHPLPAVRISKGKSVRVDIHEGGEVDILFEFFGTPPFEFTYTRSTNARKGQKSQVLETRHDISHEHSKVIKASQEGTYEVVAIKDKYCSFSTQAVVGLEGGKKDKTKKLKVY
notes: also called FL Ctpom152; full-length Ctpom152; source: insect cells, purified with detergent extract; much of the detergent removed before cryo-EM
As to B1, the binding result is recorded as “binds”.

Source of the values: publication PMC6141588, “Electron microscopy of Chaetomium pom152 shows the assembly of ten-bead string” (Cell Discovery, 2018).
